According to patent US20070054851A1:

Key:
[1] = target: ErbB1 receptor (EGF receptor) on HeLa 229 cells (UniProt P00533); test: cell-based or functional assay
ErbB1 receptor = ErbB1 receptor (UniProt P00533); test: cell-based or functional assay

PEGylated betacellulin produced using the mPEG-SMB-20K reagent, sequence (P35070 other isoform, or with tags, fused parts or gaps limits assumed): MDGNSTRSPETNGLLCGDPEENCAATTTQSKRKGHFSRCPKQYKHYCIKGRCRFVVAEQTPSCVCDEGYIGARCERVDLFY
PEGylated betacellulin produced using the mPEG-ButyrALD-20K reagent, sequence (P35070 other isoform, or with tags, fused parts or gaps limits assumed): as above
UniProt P35070, sequence (P35070 other isoform, or with tags, fused parts or gaps limits assumed): as above

Row | activity % (phospho-EGFR pY1068 ELISA, HeLa cells; SEC column S70; 40 nM submitted to assay) [1] [%] | activity % (phospho-EGFR pY1068 ELISA, HeLa cells; SEC column S200; 40 nM submitted to assay) [1] [%] | activity in phospho-EGFR pY1068 ELISA on HeLa 229 cells, against unreacted betacellulin (ErbB1 receptor; scale: % reduction against unreacted betacellulin) | ELISA activity is equivalent to [BTC] nM (phospho-EGFR pY1068 ELISA, HeLa cells; SEC column S200; 40 nM submitted to assay) [1] [nM] | activity in phospho-EGFR pY1068 ELISA on HeLa 229 cells, against unreacted betacellulin (fold lower than unreacted betacellulin) (ErbB1 receptor) | ELISA activity is equivalent to [BTC] nM (phospho-EGFR pY1068 ELISA, HeLa cells; SEC column S70; 40 nM submitted to assay) [1] [nM] | Substance
1 | 58 | 55 | < 50 | – | – | – | PEGylated betacellulin produced using the mPEG-ButyrALD-20K reagent (from UniProt P35070 32-111) (ligand)
2 | 26 | 34 | – | 14 | 3 | – | PEGylated betacellulin produced using the mPEG-SMB-20K reagent (from UniProt P35070 32-111) (ligand)
3 | 0 | – | – | – | – | 0 | Unreacted (row label under 'PEGylation chemistry'; taken as the unreacted betacellulin fraction from the S70 size exclusion column) (from UniProt P35070 32-111) (ligand)
